The values that follow come from publication PMC11885821, “Structures of complete HIV-1 TAR RNA portray a dynamic platform poised for protein binding and structural remodeling”.

Data set [1] deals with PKR (unphosphorylated) (Homo sapiens) (UniProt P19525). Description: FP.
Data set [2] deals with PKR dsRBMs (Homo sapiens) (UniProt P19525). Nature of the data set: FP.
Data set [3] addresses T1, PKR dsRBMs (Homo sapiens, UniProt P19525 9-167). Nature of the data set: FP. Particulars: protein: recombinant, tags: tag cleaved by TEV, hairpin.
Data set [4] concerns the target T2, PKR (unphosphorylated) (Homo sapiens, UniProt P19525 1-551). Nature of the data set: FP. Particulars: protein: recombinant, tags: His tag (HisTrap purified), hairpin.
The target of data set [5] is T3, Tat44-60 WT (HIV-1, UniProt P04608).
T3 chain: GISYGRKKRRQRRRAHQ
Nature of the data set: ITC; 1 mM Mg2+. The settings on record: label: 3' FAM in FP; none in ITC and SEC-MALS; hairpin, blunt 2 G-C end; bulges C5, A17, U23-C24-U25. In general terms: Isothermal titration calorimetry measures the heat released or taken up as one component is titrated into another.

Data set [6] deals with T3, Tat44-60 WT. Nature of the data set: 2AP fluorescence lifetime. The settings on record: label: 2AP; hairpin.
Data set [7] deals with T1, PKR dsRBMs. Nature of the data set: 2AP fluorescence lifetime. The settings on record: protein: recombinant; tags: tag cleaved by TEV; label: 2AP; hairpin.
The target of the next data set is NC (nucleocapsid) (HIV-1, UniProt P04591 378-432). Description: 2AP fluorescence lifetime. Particulars: protein: recombinant; tags: MBP tag cleaved by PreScission; label: 2AP; hairpin.
Data set [8] has as its target T2, PKR (unphosphorylated). Nature of the data set: FP; printed Kd 0.02 uM conflicts with log Ka and with text (3-fold weaker). The settings on record: protein: recombinant; tags: His tag (HisTrap purified); label: 3' FAM; hairpin.
Data set [9] concerns the target T3, Tat44-60 WT. Nature of the data set: crystal structure; peptide soaked into TAR-I crystals, 2.7 A; FP: 25 mM Tris-HCl pH 7.5, 50 mM NaCl, 50 mM KCl, 2 mM MgCl2, 21 C, 5 nM RNA; ITC: 25 mM Tris-HCl pH 7.5, 100 mM NaCl, 1 mM MgCl2, 25 C. Particulars: hairpin, GAAA tetraloop.
Where [10] appears, read: label: 3' FAM in FP, none in ITC and SEC-MALS, blunt 2 G-C end, bulges C5, A17, U23-C24-U25.

T1 sequence (P19525 9-167): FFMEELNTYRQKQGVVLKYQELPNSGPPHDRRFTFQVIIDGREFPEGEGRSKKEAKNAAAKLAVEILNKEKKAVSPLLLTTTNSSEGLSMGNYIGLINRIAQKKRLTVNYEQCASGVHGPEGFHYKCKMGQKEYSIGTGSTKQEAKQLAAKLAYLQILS
T2 sequence (P19525 whole entry): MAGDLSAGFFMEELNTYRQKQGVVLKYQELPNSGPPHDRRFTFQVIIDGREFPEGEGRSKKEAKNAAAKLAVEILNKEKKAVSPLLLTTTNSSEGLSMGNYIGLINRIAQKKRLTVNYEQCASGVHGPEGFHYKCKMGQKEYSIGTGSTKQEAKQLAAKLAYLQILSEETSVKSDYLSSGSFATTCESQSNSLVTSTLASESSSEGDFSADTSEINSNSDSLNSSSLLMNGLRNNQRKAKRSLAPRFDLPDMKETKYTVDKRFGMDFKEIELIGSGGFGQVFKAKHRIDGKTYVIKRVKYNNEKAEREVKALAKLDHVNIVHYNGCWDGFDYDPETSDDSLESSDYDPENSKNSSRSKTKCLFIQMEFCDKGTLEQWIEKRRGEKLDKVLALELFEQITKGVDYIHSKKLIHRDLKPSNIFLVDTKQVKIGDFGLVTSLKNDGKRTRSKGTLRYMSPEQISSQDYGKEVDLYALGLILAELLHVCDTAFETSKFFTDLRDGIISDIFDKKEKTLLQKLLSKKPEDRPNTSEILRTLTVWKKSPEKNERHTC
PKR dsRBMs (Homo sapiens), sequence (P19525 9-167): as the sequence (P19525 9-167) above
PKR (unphosphorylated) (Homo sapiens), sequence (P19525 whole entry): as the sequence (P19525 whole entry) above

Regarding TARΔ23-39, the Kd in data set [1] was determined as 54 nM; in [2], 190 nM.

Consider VA-I RNA, for which the Kd in data set [1] stood at 40 nM; in data set [2] it was 220 nM.

With GUUAGACCAGAUCUGAGCCUGGGAGCUCUCUGGCUAAC (structured_RNA) [TARΔ9bp], the dissociation constant (Kd) in the data set with PKR dsRBMs [3] (label: 3' FAM) is 1900 ± 700 nM; in the data set with PKR (unphosphorylated) [4] (label: 3' FAM) it was 130 ± 40 nM.

B1: TAR2GC (WT) (structured_RNA)
RNA: GGUCUCUCUGGUUAGACCAGAUCUGAGCCUGGGAGCUCUCUGGCUAACUAGGGAACC
B1: the figures for the Kd in the data set with PKR dsRBMs [3] (setting [10]), with PKR (unphosphorylated) [4] (setting [10]) and in the data set with Tat44-60 WT [5] were 120 ± 10 nM, 35 ± 5 nM and 160 ± 100 nM, respectively.

B2: 2AP20 TAR2GC (structured_RNA)
RNA: GGUCUCUCUGGUUAGACCAGAUCUGAGCCUGGGAGCUCUCUGGCUAACUAGGGAACC
modifications: 2-aminopurine at A20
On to B2, for which the binding result with Tat44-60 WT [6], with PKR dsRBMs [7] and in the data set with NC (nucleocapsid) was “binds” in each case.

B3: 2AP17 TAR2GC (structured_RNA)
RNA: GGUCUCUCUGGUUAGACCAGAUCUGAGCCUGGGAGCUCUCUGGCUAACUAGGGAACC
modifications: 2-aminopurine at A17
As for B3, the binding result with Tat44-60 WT [6] and with NC (nucleocapsid) was “binds” throughout.

B4: 2AP3 TAR2GC C57U (structured_RNA)
RNA: GAUCUCUCUGGUUAGACCAGAUCUGAGCCUGGGAGCUCUCUGGCUAACUAGGGAAUC
modifications: 2-aminopurine at G3; C57U
B4: the binding result with Tat44-60 WT [6], in the data set with PKR dsRBMs [7] and with NC (nucleocapsid) was “binds” in each case.

B5: TAR A48U/C49G/U50A (structured_RNA)
RNA: GGUCUCUCUGGUUAGACCAGAUCUGAGCCUGGGAGCUCUCUGGCUAUGAAGGGAACC
With B5, the Kd with PKR dsRBMs [3] (label: 3' FAM) worked out at 360 ± 120 nM. Further, the Ka with PKR (unphosphorylated) [8] was 7.02 ± 0.11 log10 M-1.

B6: 2AP24 TAR2GC (structured_RNA)
RNA: GGUCUCUCUGGUUAGACCAGAUAUGAGCCUGGGAGCUCUCUGGCUAACUAGGGAACC
modifications: 2-aminopurine at C24
For B6, the binding result with Tat44-60 WT [6], in the data set with PKR dsRBMs [7] and in the data set with NC (nucleocapsid) was “binds” each time.

B7: TAR GAAA (TAR-I) (structured_RNA)
RNA: GGUCUCUCUGGUUAGACCAGAUCUGAGCCGAAAAGCUCUCUGGCUAACUAGGGAACC
Turning to B7, the binding result in the data set with Tat44-60 WT [9] is on record as “binds”.

With CUCUGGUUAGACCAGAUCUGAGCCUGGGAGCUCUCUGGCUAACUAGGG (structured_RNA) [TARΔ4bp], the results for the dissociation constant Kd with PKR dsRBMs [3] (label: 3' FAM) and in the data set with PKR (unphosphorylated) [4] (label: 3' FAM) were 290 ± 20 nM and 50 ± 3 nM, respectively.

As to CCAGAUCUGAGCCUGGGAGCUCUCUGG (structured_RNA) [TARΔ14bp], the Kd in the data set with PKR dsRBMs [3] (label: 3' FAM) worked out at 2280 ± 700 nM; in the data set with PKR (unphosphorylated) [4] (label: 3' FAM), 1230 ± 1000 nM.

A word on the Kd: it is the constant that tells how readily two partners part at equilibrium.
